Test results from publication PMC8130932 (PLoS Pathogens, 2021).

Columns and labels:
[1] = biological target: T1, SARS-CoV-2 spike glycoprotein S1+S2 extracellular domain (SARS-CoV-2, reference sequence, UniProt P0DTC2); test: ELISA
T1 construct: also called full-length spike glycoprotein ectodomain

[2] = biological target: T2, SARS-CoV-2 spike glycoprotein, full-length, prefusion-stabilised, on MDCK-SIAT1 cells (SARS-CoV-2, reference sequence, UniProt P0DTC2, 986KV987 to 986PP987 | 682RRAR685 to 682GSAG685); test: flow cytometry on cells; details: one partner purified
T2 construct: also called MDCK-Spike

Row | Binder | OD450 [1] | binding result [2]
1 | FJ 10B (antibody, V domains shown, source: HEK293T, transfected; culture supernatant or purified) VH: QVQLVQSGAEVKKPGESLRISCKGSGYSFTSYWISWVRQMPGKGLEWMGRIDPSDSYTNYSPSFQGHVTISADKSISTAYLQWSSLKASDTAMYYCARLDPRYGPDYYGMDVWGQGTTVTVSS VL: AIRMTQSPSSLSASVGDRVTITCRASQSISSYLNWYQQKPGKAPKLLIHAASSLQSGVPSRFSGSGSGTDFTLTMSSLQPEDFATYYCQQSYSTPLTFGGGTKVEIR | 1.48 OD450 | –
2 | FD 11A (antibody, V domains shown, source: HEK293T, transfected; culture supernatant or purified) VH: EVQLVESGGGVVQPGRSLRLSCAASGFTFSSYGMHWVRQAPGKGLEWVAVIWYDGSNKYYADSVKGRFTISRDNSKNTLYLQMNSLRAEDTAVYYCAKGPDILTGYYNYYYYGMDVWGQGTMVTVSS VL: QSVLTQPPSVSGAPGQRVTISCTGSSSNIGAGYDVHWYQQLPGTAPKLLIYGNSNRPSGVPDRFSGSKSGTSASLAITGLQAEDEADYYCQSYDSSLSGFYVVFGGGTKLTVL | 1.64 OD450 | binds
3 | FD 7D (antibody, V domains shown, source: HEK293T, transfected; culture supernatant or purified) VH: EVQLVESGAEVKKPGESLRISCKGSGYSFTSYWISWVRQMPGKGLEWMGRIDPSDSYTNYSPSFQGHVTISADKSISTAYLQWSSLKASDTAMYYCARHSDCSSTSCYFVDAFDIWGQGTMVTVSS VL: not shown | 1.44 OD450 | –
4 | FD 11C (antibody, V domains shown, source: HEK293T, transfected; culture supernatant or purified) VH: EVQLLESGPGLVKPSETLSLTCTVSGGSISSSSYYWGWIRQPPGKGLEWIGSIYYSGSTYYNPSLKSRVTISVDTSKNQFSLKLSSVTAADTAVYYCAREYYYGSETKKYYYYYGMDVWGQGTTVTVSS VL: not shown | 1.2 OD450 | binds
5 | EW 9B (antibody, V domains shown, source: HEK293T, transfected; culture supernatant or purified) VH: EVQLVQSGAEVKKPGASVKVSCKASGYTFTSYYMHWVRQAPGQGLEWMGIINPSGGSTSYAQKFQGRVTMTRDTSTSTVYMELSSLRSEDTAVYYCAREDGVVPAANLMISLEDYYYYGMDVWGQGTTVTVSS VL: EIVLTQSPATLSLSPGERATLSCRASQSVSSYLAWYQQKPGQAPRLLIYDASNRATGIPARFSGSGSGTDFTLTISSLEPEDFAVYYCQQRSNWPLTFGGGTKVDIK | 0.22 OD450 | –
6 | FD 1D (antibody, V domains shown, source: HEK293T, transfected; culture supernatant or purified) VH: EVQLVESGGGVVQPGRSLRLSCAASGFTFSSYAMHWVRQAPGKGLEWVAVISYDGSNKYYADSVKGRFTISRDNSKNTLYLQMNSLRAEDTAVYYCARAGSGSYLNWFDPWGQGTLVTVSS VL: EIVLTQSPATLSLSPGERATLSCRASQSVSSYLAWYQQKPGQAPRLLIYDASNRATGIPARFSGSGSGTDFTLTISSLEPEDFAVYYCQQRSNWPITFGQGTRLEIK | 0.4 OD450 | –
7 | FG 12C (antibody, V domains shown, source: HEK293T, transfected; culture supernatant or purified) VH: EVQLVESGGGLVQPGRSLRLSCAASGFTFDDYAMHWVRQAPGKGLEWVSGISWNSGSIGYADSVKGRFTISRDNAKNSLYLQMNSLRAEDTALYYCAKDMRVHDYGDYYFDYWGQGTLVTVSS VL: SYELTQPPSVSVAPGKTARITCGGNNIGSKSVHWYQQKPGQAPVLVIYYDSDRPSGIPERFSGSNSGNTATLTISRVEAGDEADYYCQVWDSSSDHPVFGGGTKLTVL | 1.74 OD450 | –
8 | FM 1A (antibody, V domains shown, source: HEK293T, transfected; culture supernatant or purified) VH: EVQLLESGGGVVQPGRSLRLSCAASGFTFSSYGMHWVRQAPGKGLEWVAVIWYDGSNKYYADSVKGRFTISRDNSKNTLYLQMNSLRAEDTAVYYCAREGAVGATRGFDYWGQGTLVTVSS VL: SYELTQPPSVSVAPGQTARITCGGNNIGSKSVHWYQQKPGQAPVLVVYDDSDRPSGIPERFSGSNSGNTATLTISRVEAGDEADYYCQVWDSSSDQGVFGGGTKLTVL | 0.25 OD450 | –
9 | FN 8C (antibody, V domains shown, source: HEK293T, transfected; culture supernatant or purified) VH: QVQLVESGGGVVQPGRSLRLSCAASGFTFSSYGMHWVRQAPGKGLEWVAVISYDGSNKYYADTVKGRFTISRDNSKNTLYLQMNSLRAEDTAVYYCARERTYYDILTGYRHYYGMDVWGQGTTVTVSS VL: SYELTQPPSVSVAPGQTARITCGGNNIGSKSVHWYQQKPGQAPVLVVYDDSDRPSGIPERFSGSNSGNTATLTISRVEAGDEADYYCQVWDSSSDHWVFGGGTKLTVL | 0.54 OD450 | –
10 | FJ 1C (antibody, V domains shown, source: HEK293T, transfected; culture supernatant or purified) VH: QVQLQESGPGLVKPSETLSLTCTVSGYSISSGYYWGWIRQPPGKGLEWIGSIYHSGSTYYNPSLKSRVTISVDTSKNQFSLKLSSVTAADTAVYYCARDKALLWFGELFTNLFDYWGQGTLVTVSS VL: QSALTQPASVSGSPGQSITISCTGTSSDVGGYNYVSWYQQHPGKAPKLMIYEVSNRPSGVSNRFSGSKSGNTASLTISGLQAEDEANYYCSSYTSSSTLVFGGGTKLTVL | 1.61 OD450 | –
11 | FD 10A (antibody, V domains shown, source: HEK293T, transfected; culture supernatant or purified) VH: EVQLVESGGGLVQPGGSLRLSCAASGFTFSSYWMHWVRQAPGKGLVWVSRINSDGSSTSYADSVKGRFTISRDNAKNTLYLQMNSLRAEDTAVYYCANMAFDIWGQGTMVTVSS VL: not shown | 1.78 OD450 | –
12 | FD 8B (antibody, V domains shown, source: HEK293T, transfected; culture supernatant or purified) VH: EVQLLESGAEVKKPGASVKVSCKVSGYTLTELSMHWVRQAPGKGLEWMGGFDPEDGETIYAQKFQGRVTMTEDTSTDTAYMELSSLRSEDTAVYYCATAAAINCSSTSCYYYYYYYGMDVWGQGTTVTVSS VL: not shown | 1.1 OD450 | –
13 | FD 5D (antibody, V domains shown, source: HEK293T, transfected; culture supernatant or purified) VH: EVQLVESGGGLVQPGGSLRLSCAASGFTFSSYSMNWVRQAPGKGLEWVSYISSSSSTIYYADPVKGRFTISRDNAKNSLYLQMNSLRAEDTAVYYCASPGGITAAGTSVLFGYYGMDVWGQGTMVTVSS VL: not shown | 1.83 OD450 | –
14 | FD 11E (antibody, V domains shown, source: HEK293T, transfected; culture supernatant or purified) VH: EVQLVESGGGLVKPGGSLRLSCAASGFTFSSYSMNWVRQAPGKGLEWVSSISSSSSYIYYADSVKGRFTISRDNAKNSLYLQMNSLRAEDTAVYYCASLAAAGPETYYYYGMDVWGQGTMVTVSS VL: not shown | 1.45 OD450 | binds
15 | FD 1E (antibody, V domains shown, source: HEK293T, transfected; culture supernatant or purified) VH: EVQLLESGGGLVKPGGSLRLSCAASGFTFSSYSMNWVRQAPGKGLEWVSSISSSSSYIYYADSVKGRFTISRDNAKNSLYLQMNSLRAEDTAVYYCASLAAAGPETYYYYGMDVWGQGTMVTVSS VL: not shown | 1.45 OD450 | binds
16 | FI 3A (antibody, V domains shown, source: HEK293T, transfected; culture supernatant or purified) VH: EVQLLESGGGLIQPGGSLRLSCAASGFTVSSNYMSWVRQAPGKGLEWVSVIYSGGSTYYADSVKGRFTISRDNSKNTLYLQMNSLRAEDTAVYYCARDHVRPGMNIWGQGTMVTVSS VL: not shown | 1.6 OD450 | binds
17 | FN 12A (antibody, V domains shown, source: HEK293T, transfected; culture supernatant or purified) VH: QVQLVQSGAEVKKPGSSVKVSCKASGGTFSSYAISWVRQAPGQGLEWMGRIIPILGIANYAQKFQGRVTITADKSTSTAYMELSSLRSEDTAVYYCARSGCSSTSCPSNLYYYYYGMDVWGQGTTVTVSS VL: QSVLTQPPSVSAAPGQKVTISCSGSSSNIGNNYVSWYQQLPGTAPKLLIYDNNKRPSGIPDRFSGSKSGTSATLGITGLQTGDEADYYCGTWDSSLSALVFGGGTKLTVL | 2.24 OD450 | –
18 | FJ 4E (antibody, V domains shown, source: HEK293T, transfected; culture supernatant or purified) VH: QVQLVESGPGLVKPSETLSLTCSVSGGSISSGTYYWSWIRQQPGKGLEWIGYIYNTGRPYYNPFLKSRITISVDSSKNQFSLKLTSVTAADTAVYYCARDEYDSSDSGIQGHWFDPWGQGTLVTVSS VL: AIRMTQSPSSLSASVGDRVTITCRTSQNINSFLNWYQQKPGKGPNLLIYGAFTLQSGVPSRFSGSGSGTDFTLTISSLQPEDFATYFCQQSYSTPWTFGQGTKVEIK | 0.26 OD450 | –
